Experimental data from patent US6500927B2 (priority 1998, dated 2002).
pKd, pKi: −log10 of the molar value.

Assays:
[1] = target: MOR-1 (mu-opioid receptor-1, full length) (mouse) (UniProt P42866); experiment: competition with ^3H-DAMGO, CHO cell membranes
[2] = target: MOR-1C splice variant of the mu-opioid receptor-1 (mouse); experiment: competition with ^3H-DAMGO, CHO cell membranes
[3] = target: MOR-1D splice variant of the mu-opioid receptor-1 (mouse) (UniProt P42866); experiment: competition with ^3H-DAMGO, CHO cell membranes
[4] = target: MOR-1E splice variant of the mu-opioid receptor-1 (mouse) (UniProt P42866); experiment: competition with ^3H-DAMGO, CHO cell membranes
[5] = target: MOR-1 (mu-opioid receptor-1, full length) (mouse) (UniProt P42866); experiment: saturation radioligand binding, membranes of stably transfected CHO cells
[6] = target: MOR-1C splice variant of the mu-opioid receptor-1 (mouse); experiment: as above
[7] = target: MOR-1D splice variant of the mu-opioid receptor-1 (mouse) (UniProt P42866); experiment: as above
[8] = target: MOR-1E splice variant of the mu-opioid receptor-1 (mouse) (UniProt P42866); experiment: as above
MOR-1D = target: T1, MOR-1D (Mus musculus, UniProt P42866); type: binding; conditions: MOR-1D vs MOR-1, p<0.05
T1 construct: The cDNA fragments containing the full length MOR-1 or the MOR-1 variants in pCRII-ToPo were subcloned into pcDNA3.1; expressed in transfected cells

MOR-1E = target: T2, MOR-1E (Mus musculus, UniProt P42866); type: binding; conditions: MOR-1E vs MOR-1
T2 construct: The cDNA fragments containing the full length MOR-1 or the MOR-1 variants in pCRII-ToPo were subcloned into pcDNA3.1; expressed in transfected cells

Row | Substance | pKi [1] | pKi [2] | pKi [3] | pKi [4] | other results
1 | DADLE (peptide) | 8.68 | 8.49 | 8.89 | 8.60 | –
2 | [D-Ala^2, MePhe^4, Gly(ol)^5]enkephalin (DAMGO) (peptide) | 8.74 | 9.03 | 9.15 | 8.92 | pKd [5]: 8.76; pKd [6]: 9.03; pKd [7]: 9.14; pKd [8]: 8.92
3 | [D-Ser^2, Leu^5]enkephalin-Thr^6 (DSLET) (peptide) | – | – | – | – | fold potency against MOR-1 [3]: 2 fold
4 | [D-Ser^2, Leu^5]enkephalin-Thr^6 [DSLET] | – | – | – | – | Potency against binding to MOR-1D relative to MOR-1 (in words) (MOR-1D): twice as potent
5 | β-endorphin: endogenous opioid peptide | – | – | – | – | Affinity of MOR-1E compared with MOR-1 (MOR-1E): significantly higher affinity
